% inhibition of IgE binding data for 1 molecule are collected here from patent US20020173625A1.

The test has as its target grass pollen allergic patients' IgE antibodies. Put plainly: ELISA competition; sera of 20 patients preadsorbed with 10 ug/ml rPhl p 6; competitor: plate-bound rPhl p 6. On the technique in general: In an ELISA, binding on a coated surface is turned into a signal by an enzyme label.

B1: recombinant Phl p 6 (protein, timothy grass, UniProt P43215 23-132, looked up)
chain: GKATTEEQKLIEDVNASFRAAMATTANVPPADKYKTFEAAFTVSSKRNLADAVSKAPQLVPKLDEVYNAAYNAADHAAPEDKYEAFVLHFSEALRIIAGTPEVHAVKPGA
As for B1, the % inhibition of IgE binding was 80%.
